Values of other authors in paper PMC3433420.
Where two headings read alike, the source gives them in different places.

How the values were obtained:
Conditions in all cases: cited from earlier work
VAV2 (Homo sapiens) [1] = molecular target: VAV2 (Homo sapiens) (UniProt P52735)
PIK3R3-N (Homo sapiens) = PIK3R3-N (Homo sapiens) (UniProt Q92569)
SHC2-PTB (Homo sapiens) = SHC2-PTB (Homo sapiens) (UniProt P98077)
SHB (Homo sapiens) = SHB (Homo sapiens) (UniProt Q15464)
VAV2 (Homo sapiens) [2] = molecular target: VAV2 (Homo sapiens) (UniProt P52735); remark: listed apart in the source
PIK3R3-NC (Homo sapiens) [3] = molecular target: PIK3R3-NC (Homo sapiens) (UniProt Q92569)
NCK2 (Homo sapiens) = NCK2 (Homo sapiens) (UniProt O43639)
Sequence of NCK2 (Homo sapiens) (O43639 280-380): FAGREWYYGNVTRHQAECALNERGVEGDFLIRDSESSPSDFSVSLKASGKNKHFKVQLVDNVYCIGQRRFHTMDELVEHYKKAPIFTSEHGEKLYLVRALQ

PIK3R3-NC (Homo sapiens) [4] = molecular target: PIK3R3-NC (Homo sapiens) (UniProt Q92569); remark: listed apart in the source
PIK3R2-N (Homo sapiens) = PIK3R2-N (Homo sapiens) (UniProt O00459)
Sequence of PIK3R2-N (Homo sapiens) (O00459 325-721): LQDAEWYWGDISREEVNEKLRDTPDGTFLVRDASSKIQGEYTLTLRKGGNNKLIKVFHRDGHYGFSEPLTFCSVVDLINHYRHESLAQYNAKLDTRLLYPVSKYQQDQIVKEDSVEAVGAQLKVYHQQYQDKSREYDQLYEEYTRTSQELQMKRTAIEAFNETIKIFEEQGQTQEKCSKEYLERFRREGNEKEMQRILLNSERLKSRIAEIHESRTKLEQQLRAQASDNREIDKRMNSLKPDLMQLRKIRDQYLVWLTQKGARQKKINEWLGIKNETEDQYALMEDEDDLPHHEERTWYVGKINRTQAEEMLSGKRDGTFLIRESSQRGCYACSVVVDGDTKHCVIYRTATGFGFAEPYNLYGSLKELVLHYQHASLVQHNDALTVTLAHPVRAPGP

PIK3R3-NC (Homo sapiens) [5] = molecular target: PIK3R3-NC (Homo sapiens) (UniProt Q92569); remark: listed apart in the source
PTPN6-C (Homo sapiens) = PTPN6-C (Homo sapiens) (UniProt P29350)
Sequence of PTPN6-C (Homo sapiens) (P29350 1-218): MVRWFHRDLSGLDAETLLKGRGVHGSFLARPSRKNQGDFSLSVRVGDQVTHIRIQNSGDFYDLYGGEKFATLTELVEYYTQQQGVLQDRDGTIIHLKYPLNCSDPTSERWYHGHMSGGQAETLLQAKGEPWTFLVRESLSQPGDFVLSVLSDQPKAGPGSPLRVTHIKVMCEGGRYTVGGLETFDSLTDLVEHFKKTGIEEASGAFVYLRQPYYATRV

SH2D3A (Homo sapiens) = SH2D3A (Homo sapiens) (UniProt Q9BRG2)
Sequence of SH2D3A (Homo sapiens) (Q9BRG2 10-119): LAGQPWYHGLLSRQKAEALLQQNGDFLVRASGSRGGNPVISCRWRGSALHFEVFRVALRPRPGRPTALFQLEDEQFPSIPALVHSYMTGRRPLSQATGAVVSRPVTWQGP

CRKL (Homo sapiens) = CRKL (Homo sapiens) (UniProt P46109)
Sequence of CRKL (Homo sapiens) (P46109 9-107): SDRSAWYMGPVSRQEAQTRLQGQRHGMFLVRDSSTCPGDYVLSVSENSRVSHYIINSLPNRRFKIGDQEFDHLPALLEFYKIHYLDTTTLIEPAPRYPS

PLCG1-C (Homo sapiens) = PLCG1-C (Homo sapiens) (UniProt P19174)
Sequence of PLCG1-C (Homo sapiens) (P19174 545-761): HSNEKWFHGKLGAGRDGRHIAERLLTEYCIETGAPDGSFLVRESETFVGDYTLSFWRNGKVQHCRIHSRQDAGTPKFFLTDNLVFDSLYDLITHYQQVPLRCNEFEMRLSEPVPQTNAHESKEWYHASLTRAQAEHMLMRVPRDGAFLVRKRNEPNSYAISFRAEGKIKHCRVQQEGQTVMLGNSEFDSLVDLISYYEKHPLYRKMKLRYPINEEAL

SHC1-PTB (Homo sapiens) = SHC1-PTB (Homo sapiens) (UniProt P29353)
Sequence of SHC1-PTB (Homo sapiens) (P29353 483-583): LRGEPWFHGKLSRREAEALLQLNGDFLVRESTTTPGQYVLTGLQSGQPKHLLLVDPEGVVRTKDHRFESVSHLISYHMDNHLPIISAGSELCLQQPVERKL

SOCS1 (Homo sapiens) = SOCS1 (Homo sapiens) (UniProt O15524)
Sequence of SOCS1 (Homo sapiens) (O15524 74-179): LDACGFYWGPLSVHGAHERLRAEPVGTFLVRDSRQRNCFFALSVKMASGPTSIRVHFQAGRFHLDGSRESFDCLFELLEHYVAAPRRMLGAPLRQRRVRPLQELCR

PLCG1-N (Homo sapiens) = PLCG1-N (Homo sapiens) (UniProt P19174)
Sequence of PLCG1-N (Homo sapiens) (P19174 545-761): as the sequence (P19174 545-761) above

SHD (Homo sapiens) = SHD (Homo sapiens) (UniProt Q96IW2)
Sequence of SHD (Homo sapiens) (Q96IW2 235-340): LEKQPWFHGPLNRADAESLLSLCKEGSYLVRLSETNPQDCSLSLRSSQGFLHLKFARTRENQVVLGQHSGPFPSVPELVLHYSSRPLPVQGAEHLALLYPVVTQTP

RASA1-C (Homo sapiens) = RASA1-C (Homo sapiens) (UniProt P20936)
Sequence of RASA1-C (Homo sapiens) (P20936 176-446): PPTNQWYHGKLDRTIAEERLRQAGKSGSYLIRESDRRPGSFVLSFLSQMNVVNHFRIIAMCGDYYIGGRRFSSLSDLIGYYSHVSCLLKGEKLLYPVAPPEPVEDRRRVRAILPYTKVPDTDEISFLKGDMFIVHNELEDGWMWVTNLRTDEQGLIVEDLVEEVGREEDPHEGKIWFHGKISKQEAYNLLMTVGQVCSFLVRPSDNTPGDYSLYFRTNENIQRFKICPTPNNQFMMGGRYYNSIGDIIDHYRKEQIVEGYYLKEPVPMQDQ

PIK3R1-C (Homo sapiens) [6] = molecular target: PIK3R1-C (Homo sapiens) (UniProt P27986)
Sequence of PIK3R1-C (Homo sapiens) (P27986 328-723): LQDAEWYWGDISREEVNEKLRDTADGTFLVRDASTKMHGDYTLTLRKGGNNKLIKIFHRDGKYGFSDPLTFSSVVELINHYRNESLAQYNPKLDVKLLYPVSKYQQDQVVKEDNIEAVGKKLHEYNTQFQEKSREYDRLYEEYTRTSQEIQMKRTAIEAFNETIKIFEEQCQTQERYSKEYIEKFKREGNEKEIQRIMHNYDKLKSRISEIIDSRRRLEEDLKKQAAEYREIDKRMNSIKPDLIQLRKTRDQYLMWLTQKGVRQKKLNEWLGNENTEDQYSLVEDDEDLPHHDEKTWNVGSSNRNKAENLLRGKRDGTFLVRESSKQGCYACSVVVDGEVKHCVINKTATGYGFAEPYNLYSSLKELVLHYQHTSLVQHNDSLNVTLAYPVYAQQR

SLA2 (Homo sapiens) = SLA2 (Homo sapiens) (UniProt Q9H6Q3)
Sequence of SLA2 (Homo sapiens) (Q9H6Q3 89-196): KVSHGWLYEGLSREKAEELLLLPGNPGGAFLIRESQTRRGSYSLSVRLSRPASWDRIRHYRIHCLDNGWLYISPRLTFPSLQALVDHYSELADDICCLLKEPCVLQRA

BMX (Homo sapiens) = BMX (Homo sapiens) (UniProt P51813)
Sequence of BMX (Homo sapiens) (P51813 291-397): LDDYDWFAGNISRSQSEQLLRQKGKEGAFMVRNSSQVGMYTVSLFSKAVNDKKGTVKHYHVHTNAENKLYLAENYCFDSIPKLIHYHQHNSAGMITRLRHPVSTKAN

SOCS5 (Homo sapiens) = SOCS5 (Homo sapiens) (UniProt O75159)
Sequence of SOCS5 (Homo sapiens) (O75159 376-481): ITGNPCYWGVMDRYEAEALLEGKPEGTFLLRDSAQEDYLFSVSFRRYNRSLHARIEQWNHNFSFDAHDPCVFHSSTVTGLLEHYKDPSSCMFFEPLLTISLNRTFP

FGR (Homo sapiens) = FGR (Homo sapiens) (UniProt P09769)
CRK (Homo sapiens) = CRK (Homo sapiens) (UniProt P46108)
Sequence of CRK (Homo sapiens) (P46108 8-123): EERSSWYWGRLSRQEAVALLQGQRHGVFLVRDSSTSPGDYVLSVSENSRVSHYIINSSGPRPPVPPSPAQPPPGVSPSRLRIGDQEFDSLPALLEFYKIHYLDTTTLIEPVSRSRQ

YES1 (Homo sapiens) = YES1 (Homo sapiens) (UniProt P07947)
Sequence of YES1 (Homo sapiens) (P07947 153-260): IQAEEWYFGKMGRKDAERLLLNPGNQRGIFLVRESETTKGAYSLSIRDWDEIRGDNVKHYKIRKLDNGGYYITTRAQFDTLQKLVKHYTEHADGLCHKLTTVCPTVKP

PIK3R1-C (Homo sapiens) [7] = molecular target: PIK3R1-C (Homo sapiens) (UniProt P27986); remark: listed apart in the source
RASA1-N (Homo sapiens) = RASA1-N (Homo sapiens) (UniProt P20936)
Sequence of RASA1-N (Homo sapiens) (P20936 176-446): as the sequence (P20936 176-446) above

SLA (Homo sapiens) = SLA (Homo sapiens) (UniProt Q13239)
Sequence of SLA (Homo sapiens) (Q13239 79-180): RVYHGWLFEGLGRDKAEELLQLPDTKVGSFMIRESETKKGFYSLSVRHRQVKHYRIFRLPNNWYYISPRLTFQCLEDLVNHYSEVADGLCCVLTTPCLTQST

HSH2D (Homo sapiens) = HSH2D (Homo sapiens) (UniProt Q96JZ2)
Sequence of HSH2D (Homo sapiens) (Q96JZ2 29-130): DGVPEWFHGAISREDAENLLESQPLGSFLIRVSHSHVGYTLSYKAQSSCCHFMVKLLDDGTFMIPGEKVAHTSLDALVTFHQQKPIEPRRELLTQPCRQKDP

Sequence of VAV2 (Homo sapiens) (P52735 668-772): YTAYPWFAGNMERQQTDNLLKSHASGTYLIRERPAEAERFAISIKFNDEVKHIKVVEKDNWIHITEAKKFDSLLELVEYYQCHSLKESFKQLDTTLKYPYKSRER
Sequence of SHC2-PTB (Homo sapiens) (P98077 482-582): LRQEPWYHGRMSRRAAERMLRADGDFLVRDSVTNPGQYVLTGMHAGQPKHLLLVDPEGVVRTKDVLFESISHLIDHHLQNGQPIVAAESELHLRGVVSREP
Sequence of SHB (Homo sapiens) (Q15464 405-509): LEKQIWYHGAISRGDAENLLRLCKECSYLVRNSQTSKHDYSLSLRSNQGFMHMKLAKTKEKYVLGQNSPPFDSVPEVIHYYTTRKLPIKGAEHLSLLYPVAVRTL

## …pYLIPQQGFd
VAV2 (Homo sapiens) [1]
  apparent Kd (screen): 0.085 µM
PIK3R3-N (Homo sapiens)
  apparent Kd (screen): 0.722 µM
SHC2-PTB (Homo sapiens)
  apparent Kd (screen): 0.664 µM
SHB (Homo sapiens)
  apparent Kd (screen): 1.99 µM
VAV2 (Homo sapiens) [2]
  apparent Kd (screen): 2 µM
PIK3R3-NC (Homo sapiens) [3]
  apparent Kd (screen): 0.204 µM
NCK2 (Homo sapiens)
  apparent Kd (screen): 2 µM
PIK3R3-NC (Homo sapiens) [4]
  apparent Kd (screen): 0.203 µM
PIK3R2-N (Homo sapiens)
  apparent Kd (screen): 0.424 µM

## …pYLVPQQGF
PIK3R3-NC (Homo sapiens) [5]
  apparent Kd (screen): 0.527 µM
PTPN6-C (Homo sapiens)
  apparent Kd (screen): 2 µM
SH2D3A (Homo sapiens)
  apparent Kd (screen): 2 µM
CRKL (Homo sapiens)
  apparent Kd (screen): 2 µM
PLCG1-C (Homo sapiens)
  apparent Kd (screen): 1.46 µM

## …pYWDQDPPE
SHC1-PTB (Homo sapiens)
  apparent Kd (screen): 0.614 µM
SOCS1 (Homo sapiens)
  apparent Kd (screen): 1.92 µM
PLCG1-N (Homo sapiens)
  apparent Kd (screen): 2 µM
SHD (Homo sapiens)
  apparent Kd (screen): 2 µM
RASA1-C (Homo sapiens)
  apparent Kd (screen): 2 µM
PIK3R1-C (Homo sapiens) [6]
  apparent Kd (screen): 2 µM
SLA2 (Homo sapiens)
  apparent Kd (screen): 2 µM
BMX (Homo sapiens)
  apparent Kd (screen): 2 µM
SOCS5 (Homo sapiens)
  apparent Kd (screen): 2 µM

## …pYEEMRAFQ
FGR (Homo sapiens)
  apparent Kd (screen): 1.16 µM
CRK (Homo sapiens)
  apparent Kd (screen): 1.5 µM
YES1 (Homo sapiens)
  apparent Kd (screen): 2 µM
PIK3R1-C (Homo sapiens) [7]
  apparent Kd (screen): 0.064 µM
RASA1-N (Homo sapiens)
  apparent Kd (screen): 1.35 µM
SLA (Homo sapiens)
  apparent Kd (screen): 2 µM
HSH2D (Homo sapiens)
  apparent Kd (screen): 2 µM
